Reference: patent publication US20140072613A1 (published 2014)

T1: DMPK(h) (human, UniProt Q09013 1-629, limits assumed)
T1 sequence (looked up): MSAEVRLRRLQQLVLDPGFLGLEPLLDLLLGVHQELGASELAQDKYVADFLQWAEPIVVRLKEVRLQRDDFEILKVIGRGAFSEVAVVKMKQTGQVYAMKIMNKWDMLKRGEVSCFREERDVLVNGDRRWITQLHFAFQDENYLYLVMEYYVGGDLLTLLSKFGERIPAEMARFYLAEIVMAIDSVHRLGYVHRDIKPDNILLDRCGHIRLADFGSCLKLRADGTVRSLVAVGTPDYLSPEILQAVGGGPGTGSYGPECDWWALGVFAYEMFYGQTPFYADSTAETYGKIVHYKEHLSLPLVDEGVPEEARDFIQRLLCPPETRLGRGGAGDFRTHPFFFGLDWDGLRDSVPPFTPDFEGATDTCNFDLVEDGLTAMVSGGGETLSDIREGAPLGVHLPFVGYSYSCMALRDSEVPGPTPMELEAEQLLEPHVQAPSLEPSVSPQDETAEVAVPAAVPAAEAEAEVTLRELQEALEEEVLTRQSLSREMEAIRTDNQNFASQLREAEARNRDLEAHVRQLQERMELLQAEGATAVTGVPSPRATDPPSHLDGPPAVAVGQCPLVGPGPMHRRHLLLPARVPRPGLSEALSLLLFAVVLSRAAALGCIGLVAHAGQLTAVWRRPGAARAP

T2: DCAMKL2(h) (human, UniProt Q8N568 372-714, limits assumed)
T2 sequence (looked up): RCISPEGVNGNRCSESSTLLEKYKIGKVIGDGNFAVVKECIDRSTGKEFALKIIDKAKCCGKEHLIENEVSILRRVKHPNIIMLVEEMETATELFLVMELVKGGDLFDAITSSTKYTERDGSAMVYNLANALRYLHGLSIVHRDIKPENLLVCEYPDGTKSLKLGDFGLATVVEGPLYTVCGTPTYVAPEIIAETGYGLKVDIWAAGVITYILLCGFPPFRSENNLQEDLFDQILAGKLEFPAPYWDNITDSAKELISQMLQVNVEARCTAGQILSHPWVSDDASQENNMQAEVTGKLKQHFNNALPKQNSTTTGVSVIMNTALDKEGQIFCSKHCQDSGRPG

T3: EphA3(h) (human, UniProt P29320 566-983, limits assumed)
T3 sequence (looked up): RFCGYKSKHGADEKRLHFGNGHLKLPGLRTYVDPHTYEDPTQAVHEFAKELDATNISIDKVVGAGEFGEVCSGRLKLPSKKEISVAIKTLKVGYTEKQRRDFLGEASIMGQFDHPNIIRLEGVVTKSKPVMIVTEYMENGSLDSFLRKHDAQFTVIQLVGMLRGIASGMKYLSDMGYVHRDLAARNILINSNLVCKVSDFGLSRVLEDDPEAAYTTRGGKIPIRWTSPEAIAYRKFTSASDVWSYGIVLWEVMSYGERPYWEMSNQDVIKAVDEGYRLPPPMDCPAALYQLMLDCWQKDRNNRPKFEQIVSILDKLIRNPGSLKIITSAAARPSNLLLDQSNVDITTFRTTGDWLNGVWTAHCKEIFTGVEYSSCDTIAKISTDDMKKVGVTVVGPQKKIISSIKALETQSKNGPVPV

T4: SAPK3(h) (human, UniProt P53778 1-367)
T4 sequence (looked up): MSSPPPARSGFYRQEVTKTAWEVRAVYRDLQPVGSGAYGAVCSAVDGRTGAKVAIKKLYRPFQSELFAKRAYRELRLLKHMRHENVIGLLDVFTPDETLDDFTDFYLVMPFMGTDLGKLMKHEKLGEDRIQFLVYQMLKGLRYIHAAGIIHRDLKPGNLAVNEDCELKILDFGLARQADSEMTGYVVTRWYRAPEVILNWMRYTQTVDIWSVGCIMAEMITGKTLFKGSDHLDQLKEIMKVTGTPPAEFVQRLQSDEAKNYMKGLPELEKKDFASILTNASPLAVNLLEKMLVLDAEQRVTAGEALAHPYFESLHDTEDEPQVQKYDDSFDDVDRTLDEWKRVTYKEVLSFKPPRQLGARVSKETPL

T5: PKD2(h) (human, UniProt Q9BZL6 1-878)
T5 sequence (looked up): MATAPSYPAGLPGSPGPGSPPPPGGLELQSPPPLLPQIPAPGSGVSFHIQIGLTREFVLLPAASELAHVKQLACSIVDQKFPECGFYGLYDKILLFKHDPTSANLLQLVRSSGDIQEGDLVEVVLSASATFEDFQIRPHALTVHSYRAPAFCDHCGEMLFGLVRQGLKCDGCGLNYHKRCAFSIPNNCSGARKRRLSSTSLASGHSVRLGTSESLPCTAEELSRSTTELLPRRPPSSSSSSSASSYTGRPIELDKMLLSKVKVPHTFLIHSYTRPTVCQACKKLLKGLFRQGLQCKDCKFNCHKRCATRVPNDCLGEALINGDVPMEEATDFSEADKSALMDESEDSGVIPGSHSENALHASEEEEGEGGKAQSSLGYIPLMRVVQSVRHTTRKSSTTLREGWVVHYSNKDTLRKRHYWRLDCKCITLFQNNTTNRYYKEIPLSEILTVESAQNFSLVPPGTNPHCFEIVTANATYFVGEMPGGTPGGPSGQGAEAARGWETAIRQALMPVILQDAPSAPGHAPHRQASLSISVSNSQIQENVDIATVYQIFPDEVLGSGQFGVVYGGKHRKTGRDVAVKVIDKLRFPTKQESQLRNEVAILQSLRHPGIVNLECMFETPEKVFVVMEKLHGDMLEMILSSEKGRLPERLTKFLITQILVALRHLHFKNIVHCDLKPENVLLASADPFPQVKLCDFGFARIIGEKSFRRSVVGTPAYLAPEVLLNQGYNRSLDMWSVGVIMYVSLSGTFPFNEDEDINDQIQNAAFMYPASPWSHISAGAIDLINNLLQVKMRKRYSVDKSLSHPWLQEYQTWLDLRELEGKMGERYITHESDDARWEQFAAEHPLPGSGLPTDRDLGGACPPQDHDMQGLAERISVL


What was measured:
Test in all cases: cell-based or functional assay
PAK3(h) = PAK3(h) (human, UniProt O75914 1-559, limits assumed)
Sequence of PAK3(h) (O75914 whole entry): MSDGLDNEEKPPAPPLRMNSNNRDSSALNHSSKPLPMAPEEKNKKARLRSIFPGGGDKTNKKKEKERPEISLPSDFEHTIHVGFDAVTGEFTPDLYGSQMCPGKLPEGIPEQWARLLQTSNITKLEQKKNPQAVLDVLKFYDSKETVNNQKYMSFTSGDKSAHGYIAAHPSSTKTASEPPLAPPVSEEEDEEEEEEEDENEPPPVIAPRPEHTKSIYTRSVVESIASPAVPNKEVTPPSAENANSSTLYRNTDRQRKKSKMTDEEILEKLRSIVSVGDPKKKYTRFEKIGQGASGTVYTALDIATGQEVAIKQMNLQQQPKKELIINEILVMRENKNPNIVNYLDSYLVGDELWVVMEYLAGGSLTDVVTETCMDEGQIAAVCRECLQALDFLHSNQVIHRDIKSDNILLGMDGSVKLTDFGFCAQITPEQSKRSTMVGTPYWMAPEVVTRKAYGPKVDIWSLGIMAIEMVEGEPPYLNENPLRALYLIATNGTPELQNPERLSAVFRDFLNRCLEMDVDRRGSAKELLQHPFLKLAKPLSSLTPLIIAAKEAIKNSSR

LOK(h) = LOK(h) (human, UniProt O94804 1-348, limits assumed)
Sequence of LOK(h) (O94804 1-348 limits assumed): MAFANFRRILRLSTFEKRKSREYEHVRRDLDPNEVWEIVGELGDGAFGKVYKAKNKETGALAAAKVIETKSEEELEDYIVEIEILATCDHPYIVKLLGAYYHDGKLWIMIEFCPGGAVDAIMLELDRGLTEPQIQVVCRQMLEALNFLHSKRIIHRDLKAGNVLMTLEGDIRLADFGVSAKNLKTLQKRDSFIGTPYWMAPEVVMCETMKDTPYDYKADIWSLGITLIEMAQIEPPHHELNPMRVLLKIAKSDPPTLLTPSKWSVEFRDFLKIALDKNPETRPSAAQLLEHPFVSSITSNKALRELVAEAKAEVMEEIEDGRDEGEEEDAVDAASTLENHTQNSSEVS

DMPK(h) = target: T1, DMPK(h)
DCAMKL2(h) = target: T2, DCAMKL2(h)
EphA3(h) = target: T3, EphA3(h)
SAPK3(h) = target: T4, SAPK3(h)
DAPK1(h) = DAPK1(h) (human, UniProt P53355 1-363, limits assumed)
Sequence of DAPK1(h) (P53355 1-363 limits assumed): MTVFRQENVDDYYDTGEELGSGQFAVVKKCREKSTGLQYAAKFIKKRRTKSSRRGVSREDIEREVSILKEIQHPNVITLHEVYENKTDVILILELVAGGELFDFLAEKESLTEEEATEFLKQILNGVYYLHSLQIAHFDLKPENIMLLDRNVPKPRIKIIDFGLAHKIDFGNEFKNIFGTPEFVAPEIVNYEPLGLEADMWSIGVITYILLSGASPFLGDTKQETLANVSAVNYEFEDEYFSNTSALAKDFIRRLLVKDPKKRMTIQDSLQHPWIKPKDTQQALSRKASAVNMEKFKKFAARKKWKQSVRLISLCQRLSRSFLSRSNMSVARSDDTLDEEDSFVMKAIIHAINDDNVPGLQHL

Snk(h) = Snk(h) (human, UniProt Q9NYY3 1-685, limits assumed)
Sequence of Snk(h) (Q9NYY3 whole entry): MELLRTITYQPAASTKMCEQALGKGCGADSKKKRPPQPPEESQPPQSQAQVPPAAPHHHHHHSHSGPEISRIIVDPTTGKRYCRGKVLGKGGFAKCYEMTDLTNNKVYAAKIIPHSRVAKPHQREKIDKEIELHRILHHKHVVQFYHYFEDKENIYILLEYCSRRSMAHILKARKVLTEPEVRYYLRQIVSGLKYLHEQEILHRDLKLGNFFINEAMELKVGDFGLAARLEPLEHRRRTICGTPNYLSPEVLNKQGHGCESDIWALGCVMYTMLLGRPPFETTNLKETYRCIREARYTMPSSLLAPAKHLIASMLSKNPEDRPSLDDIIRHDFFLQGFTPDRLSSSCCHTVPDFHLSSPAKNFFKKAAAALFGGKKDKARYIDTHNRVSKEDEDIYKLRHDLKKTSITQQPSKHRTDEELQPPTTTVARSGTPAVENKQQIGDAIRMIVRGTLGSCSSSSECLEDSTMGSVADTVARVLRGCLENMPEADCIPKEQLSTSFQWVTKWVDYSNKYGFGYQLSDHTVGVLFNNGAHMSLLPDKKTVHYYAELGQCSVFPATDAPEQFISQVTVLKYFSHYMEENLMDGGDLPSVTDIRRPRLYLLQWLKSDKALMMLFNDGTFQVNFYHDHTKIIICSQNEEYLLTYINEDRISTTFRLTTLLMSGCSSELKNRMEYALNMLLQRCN

PKD2(h) = target: T5, PKD2(h)

Binder	% activity, 100 µM (PAK3(h)) [%]	% activity, 100 µM (LOK(h)) [%]	% activity, 100 µM (DMPK(h)) [%]	% activity, 100 µM (DCAMKL2(h)) [%]	% activity, 100 µM (EphA3(h)) [%]	% activity, 100 µM (SAPK3(h)) [%]	% activity, 100 µM (DAPK1(h)) [%]	% activity, 100 µM (Snk(h)) [%]	% activity, 100 µM (PKD2(h)) [%]
KAFAKLAARLYRKALARQLGVAA [MMI-0400]	121	18	54	70	12	79	36	131	25
FAKLAARLYRKALARQLGVAA [MMI-0300]	140	37	59	81	6	84	46	114	33
